Measurements as given in US20260209293A1 (Novo Nordisk, published 2026).
*1 amine or outer side, *2 acyl side, *3 side chain or, on linkers, in order; H or OH if unused. Side-chain parts run from the residue outwards. The star is where a group is joined. C20 diacid = O=C(O)CCCCCCCCCCCCCCCCCCC(=O)*; C18 diacid = O=C(O)CCCCCCCCCCCCCCCCC(=O)*; C16 diacid = O=C(O)CCCCCCCCCCCCCCC(=O)*; γGlu = O=C(O)[C@H](CCC(=O)[*:2])N[*:1]

T1: human amylin-3(a) receptor (human, UniProt P30988 25-474; O60896 24-148)
T1 sequence (looked up) 1: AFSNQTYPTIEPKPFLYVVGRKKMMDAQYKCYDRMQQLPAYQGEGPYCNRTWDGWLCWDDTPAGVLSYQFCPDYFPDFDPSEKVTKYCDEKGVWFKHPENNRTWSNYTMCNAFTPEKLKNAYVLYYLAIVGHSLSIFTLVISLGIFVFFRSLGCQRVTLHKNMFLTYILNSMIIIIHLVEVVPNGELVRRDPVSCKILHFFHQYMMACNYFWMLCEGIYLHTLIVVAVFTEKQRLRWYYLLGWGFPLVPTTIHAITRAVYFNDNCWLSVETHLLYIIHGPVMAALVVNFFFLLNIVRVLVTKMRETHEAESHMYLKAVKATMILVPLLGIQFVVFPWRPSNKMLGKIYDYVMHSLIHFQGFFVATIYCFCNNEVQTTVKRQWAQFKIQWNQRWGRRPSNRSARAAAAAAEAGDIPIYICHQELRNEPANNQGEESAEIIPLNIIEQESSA
T1 sequence (looked up) 2: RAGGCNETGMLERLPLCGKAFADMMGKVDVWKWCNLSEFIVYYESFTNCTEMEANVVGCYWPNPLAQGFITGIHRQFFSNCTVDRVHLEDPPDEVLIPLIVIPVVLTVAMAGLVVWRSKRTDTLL

T2: human calcitonin receptor (a) (human, UniProt P30988 25-474)
T2 sequence (looked up): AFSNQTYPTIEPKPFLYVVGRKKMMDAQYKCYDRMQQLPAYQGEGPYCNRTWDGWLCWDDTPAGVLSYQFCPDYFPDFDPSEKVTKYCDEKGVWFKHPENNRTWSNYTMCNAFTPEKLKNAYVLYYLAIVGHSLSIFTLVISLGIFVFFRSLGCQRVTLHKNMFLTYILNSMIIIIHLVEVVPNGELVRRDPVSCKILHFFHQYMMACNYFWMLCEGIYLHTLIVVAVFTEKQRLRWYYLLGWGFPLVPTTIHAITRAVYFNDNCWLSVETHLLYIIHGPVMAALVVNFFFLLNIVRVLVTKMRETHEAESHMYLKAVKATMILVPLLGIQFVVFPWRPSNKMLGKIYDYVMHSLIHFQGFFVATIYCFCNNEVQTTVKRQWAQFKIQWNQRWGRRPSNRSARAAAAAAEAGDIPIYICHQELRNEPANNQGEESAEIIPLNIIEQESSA


Key:
[1] = molecular target: T1, human amylin-3(a) receptor; experiment: cell-based or functional assay
[2] = molecular target: T2, human calcitonin receptor (a); experiment: cell-based or functional assay

Row | Binder | hAmyR3 potency, EC50 (pM); CRE-luciferase reporter in BHK cells [1] [pM] | hCalcR potency, EC50 (pM); CRE-luciferase reporter in BHK cells [2] [pM]
1 | Ac-ASQLSTAQTQRLAEFLHHSSDNFGK([γGlu-C18 diacid])ILPPTDVGSNTP-NH2 (SMILES CC[C@H](C)[C@H](NC(=O)[C@H](CCCCNC(=O)CC[C@H](NC(=O)CCCCCCCCCCCCCCCCC(=O)O)C(=O)O)NC(=O)CNC(=O)[C@H](Cc1ccccc1)NC(=O)[C@H](CC(N)=O)NC(=O)[C@H](CC(=O)O)NC(=O)[C@H](CO)NC(=O)[C@H](CO)NC(=O)[C@H](Cc1c[nH]cn1)NC(=O)[C@H](Cc1c[nH]cn1)NC(=O)[C@H](CC(C)C)NC(=O)[C@H](Cc1ccccc1)NC(=O)[C@H](CCC(=O)O)NC(=O)[C@H](C)NC(=O)[C@H](CC(C)C)NC(=O)[C@H](CCCNC(=N)N)NC(=O)[C@H](CCC(N)=O)NC(=O)[C@@H](NC(=O)[C@H](CCC(N)=O)NC(=O)[C@H](C)NC(=O)[C@@H](NC(=O)[C@H](CO)NC(=O)[C@H](CC(C)C)NC(=O)[C@H](CCC(N)=O)NC(=O)[C@H](CO)NC(=O)[C@H](C)NC(C)=O)[C@@H](C)O)[C@@H](C)O)C(=O)N[C@@H](CC(C)C)C(=O)N1CCC[C@H]1C(=O)N1CCC[C@H]1C(=O)N[C@H](C(=O)N[C@@H](CC(=O)O)C(=O)N[C@H](C(=O)NCC(=O)N[C@@H](CO)C(=O)N[C@@H](CC(N)=O)C(=O)N[C@H](C(=O)N1CCC[C@H]1C(N)=O)[C@@H](C)O)C(C)C)[C@@H](C)O) | 1.38 | 1.19
2 | {C18 diacid-γGlu}-AGELSTAQTARLAEFLHHFGPILPPTDVGSETP-NH2 (SMILES CC[C@H](C)[C@H](NC(=O)[C@@H]1CCCN1C(=O)CNC(=O)[C@H](Cc1ccccc1)NC(=O)[C@H](Cc1c[nH]cn1)NC(=O)[C@H](Cc1c[nH]cn1)NC(=O)[C@H](CC(C)C)NC(=O)[C@H](Cc1ccccc1)NC(=O)[C@H](CCC(=O)O)NC(=O)[C@H](C)NC(=O)[C@H](CC(C)C)NC(=O)[C@H](CCCNC(=N)N)NC(=O)[C@H](C)NC(=O)[C@@H](NC(=O)[C@H](CCC(N)=O)NC(=O)[C@H](C)NC(=O)[C@@H](NC(=O)[C@H](CO)NC(=O)[C@H](CC(C)C)NC(=O)[C@H](CCC(=O)O)NC(=O)CNC(=O)[C@H](C)NC(=O)CC[C@H](NC(=O)CCCCCCCCCCCCCCCCC(=O)O)C(=O)O)[C@@H](C)O)[C@@H](C)O)C(=O)N[C@@H](CC(C)C)C(=O)N1CCC[C@H]1C(=O)N1CCC[C@H]1C(=O)N[C@H](C(=O)N[C@@H](CC(=O)O)C(=O)N[C@H](C(=O)NCC(=O)N[C@@H](CO)C(=O)N[C@@H](CCC(=O)O)C(=O)N[C@H](C(=O)N1CCC[C@H]1C(N)=O)[C@@H](C)O)C(C)C)[C@@H](C)O) | 1.25 | 1.03
3 | {C16 diacid-γGlu}-ASHLSTAQTARLAEFLHHSSDNFGPILPPTDVGSNTP-NH2 (SMILES CC[C@H](C)[C@H](NC(=O)[C@@H]1CCCN1C(=O)CNC(=O)[C@H](Cc1ccccc1)NC(=O)[C@H](CC(N)=O)NC(=O)[C@H](CC(=O)O)NC(=O)[C@H](CO)NC(=O)[C@H](CO)NC(=O)[C@H](Cc1c[nH]cn1)NC(=O)[C@H](Cc1c[nH]cn1)NC(=O)[C@H](CC(C)C)NC(=O)[C@H](Cc1ccccc1)NC(=O)[C@H](CCC(=O)O)NC(=O)[C@H](C)NC(=O)[C@H](CC(C)C)NC(=O)[C@H](CCCNC(=N)N)NC(=O)[C@H](C)NC(=O)[C@@H](NC(=O)[C@H](CCC(N)=O)NC(=O)[C@H](C)NC(=O)[C@@H](NC(=O)[C@H](CO)NC(=O)[C@H](CC(C)C)NC(=O)[C@H](Cc1c[nH]cn1)NC(=O)[C@H](CO)NC(=O)[C@H](C)NC(=O)CC[C@H](NC(=O)CCCCCCCCCCCCCCC(=O)O)C(=O)O)[C@@H](C)O)[C@@H](C)O)C(=O)N[C@@H](CC(C)C)C(=O)N1CCC[C@H]1C(=O)N1CCC[C@H]1C(=O)N[C@H](C(=O)N[C@@H](CC(=O)O)C(=O)N[C@H](C(=O)NCC(=O)N[C@@H](CO)C(=O)N[C@@H](CC(N)=O)C(=O)N[C@H](C(=O)N1CCC[C@H]1C(N)=O)[C@@H](C)O)C(C)C)[C@@H](C)O) | 1.62 | 1.5

Further lines, results first:

Row | hAmyR3 potency, EC50 (pM); CRE-luciferase reporter in BHK cells [1] [pM] | hCalcR potency, EC50 (pM); CRE-luciferase reporter in BHK cells [2] [pM] | Binder
4 | 1.5 | 1 | Ac-ASQLSTAQTQRLAEFLHHSSDPFGK([γGlu-C18 diacid])IPSSTDVGPDTP-NH2 (SMILES CC[C@H](C)[C@H](NC(=O)[C@H](CCCCNC(=O)CC[C@H](NC(=O)CCCCCCCCCCCCCCCCC(=O)O)C(=O)O)NC(=O)CNC(=O)[C@H](Cc1ccccc1)NC(=O)[C@@H]1CCCN1C(=O)[C@H](CC(=O)O)NC(=O)[C@H](CO)NC(=O)[C@H](CO)NC(=O)[C@H](Cc1c[nH]cn1)NC(=O)[C@H](Cc1c[nH]cn1)NC(=O)[C@H](CC(C)C)NC(=O)[C@H](Cc1ccccc1)NC(=O)[C@H](CCC(=O)O)NC(=O)[C@H](C)NC(=O)[C@H](CC(C)C)NC(=O)[C@H](CCCNC(=N)N)NC(=O)[C@H](CCC(N)=O)NC(=O)[C@@H](NC(=O)[C@H](CCC(N)=O)NC(=O)[C@H](C)NC(=O)[C@@H](NC(=O)[C@H](CO)NC(=O)[C@H](CC(C)C)NC(=O)[C@H](CCC(N)=O)NC(=O)[C@H](CO)NC(=O)[C@H](C)NC(C)=O)[C@@H](C)O)[C@@H](C)O)C(=O)N1CCC[C@H]1C(=O)N[C@@H](CO)C(=O)N[C@@H](CO)C(=O)N[C@H](C(=O)N[C@@H](CC(=O)O)C(=O)N[C@H](C(=O)NCC(=O)N1CCC[C@H]1C(=O)N[C@@H](CC(=O)O)C(=O)N[C@H](C(=O)N1CCC[C@H]1C(N)=O)[C@@H](C)O)C(C)C)[C@@H](C)O)
5 | 0.9 | 1.3 | {C20 diacid-γGlu}-ASHLSTAQTQRLAEFLHHSSDNFGPILPPTDVGSNTP-NH2 (SMILES CC[C@H](C)[C@H](NC(=O)[C@@H]1CCCN1C(=O)CNC(=O)[C@H](Cc1ccccc1)NC(=O)[C@H](CC(N)=O)NC(=O)[C@H](CC(=O)O)NC(=O)[C@H](CO)NC(=O)[C@H](CO)NC(=O)[C@H](Cc1c[nH]cn1)NC(=O)[C@H](Cc1c[nH]cn1)NC(=O)[C@H](CC(C)C)NC(=O)[C@H](Cc1ccccc1)NC(=O)[C@H](CCC(=O)O)NC(=O)[C@H](C)NC(=O)[C@H](CC(C)C)NC(=O)[C@H](CCCNC(=N)N)NC(=O)[C@H](CCC(N)=O)NC(=O)[C@@H](NC(=O)[C@H](CCC(N)=O)NC(=O)[C@H](C)NC(=O)[C@@H](NC(=O)[C@H](CO)NC(=O)[C@H](CC(C)C)NC(=O)[C@H](Cc1c[nH]cn1)NC(=O)[C@H](CO)NC(=O)[C@H](C)NC(=O)CC[C@H](NC(=O)CCCCCCCCCCCCCCCCCCC(=O)O)C(=O)O)[C@@H](C)O)[C@@H](C)O)C(=O)N[C@@H](CC(C)C)C(=O)N1CCC[C@H]1C(=O)N1CCC[C@H]1C(=O)N[C@H](C(=O)N[C@@H](CC(=O)O)C(=O)N[C@H](C(=O)NCC(=O)N[C@@H](CO)C(=O)N[C@@H](CC(N)=O)C(=O)N[C@H](C(=O)N1CCC[C@H]1C(N)=O)[C@@H](C)O)C(C)C)[C@@H](C)O)
6 | 1.11 | 1.15 | {C18 diacid-γGlu-γGlu}-ASHLSTAQTARLAEFLHHFGPILPPTDVGSETP-NH2 (SMILES CC[C@H](C)[C@H](NC(=O)[C@@H]1CCCN1C(=O)CNC(=O)[C@H](Cc1ccccc1)NC(=O)[C@H](Cc1c[nH]cn1)NC(=O)[C@H](Cc1c[nH]cn1)NC(=O)[C@H](CC(C)C)NC(=O)[C@H](Cc1ccccc1)NC(=O)[C@H](CCC(=O)O)NC(=O)[C@H](C)NC(=O)[C@H](CC(C)C)NC(=O)[C@H](CCCNC(=N)N)NC(=O)[C@H](C)NC(=O)[C@@H](NC(=O)[C@H](CCC(N)=O)NC(=O)[C@H](C)NC(=O)[C@@H](NC(=O)[C@H](CO)NC(=O)[C@H](CC(C)C)NC(=O)[C@H](Cc1c[nH]cn1)NC(=O)[C@H](CO)NC(=O)[C@H](C)NC(=O)CC[C@H](NC(=O)CC[C@H](NC(=O)CCCCCCCCCCCCCCCCC(=O)O)C(=O)O)C(=O)O)[C@@H](C)O)[C@@H](C)O)C(=O)N[C@@H](CC(C)C)C(=O)N1CCC[C@H]1C(=O)N1CCC[C@H]1C(=O)N[C@H](C(=O)N[C@@H](CC(=O)O)C(=O)N[C@H](C(=O)NCC(=O)N[C@@H](CO)C(=O)N[C@@H](CCC(=O)O)C(=O)N[C@H](C(=O)N1CCC[C@H]1C(N)=O)[C@@H](C)O)C(C)C)[C@@H](C)O)
